Results reported in US20250262210A1 (TRUSTEES OF COLUMBIA UNIVERSITY IN THE CITY OF NEW YORK, published 2025).

Biological target: T1, RALGAPB (human, UniProt Q86X10 1-1494, limits assumed)
T1 sequence (looked up): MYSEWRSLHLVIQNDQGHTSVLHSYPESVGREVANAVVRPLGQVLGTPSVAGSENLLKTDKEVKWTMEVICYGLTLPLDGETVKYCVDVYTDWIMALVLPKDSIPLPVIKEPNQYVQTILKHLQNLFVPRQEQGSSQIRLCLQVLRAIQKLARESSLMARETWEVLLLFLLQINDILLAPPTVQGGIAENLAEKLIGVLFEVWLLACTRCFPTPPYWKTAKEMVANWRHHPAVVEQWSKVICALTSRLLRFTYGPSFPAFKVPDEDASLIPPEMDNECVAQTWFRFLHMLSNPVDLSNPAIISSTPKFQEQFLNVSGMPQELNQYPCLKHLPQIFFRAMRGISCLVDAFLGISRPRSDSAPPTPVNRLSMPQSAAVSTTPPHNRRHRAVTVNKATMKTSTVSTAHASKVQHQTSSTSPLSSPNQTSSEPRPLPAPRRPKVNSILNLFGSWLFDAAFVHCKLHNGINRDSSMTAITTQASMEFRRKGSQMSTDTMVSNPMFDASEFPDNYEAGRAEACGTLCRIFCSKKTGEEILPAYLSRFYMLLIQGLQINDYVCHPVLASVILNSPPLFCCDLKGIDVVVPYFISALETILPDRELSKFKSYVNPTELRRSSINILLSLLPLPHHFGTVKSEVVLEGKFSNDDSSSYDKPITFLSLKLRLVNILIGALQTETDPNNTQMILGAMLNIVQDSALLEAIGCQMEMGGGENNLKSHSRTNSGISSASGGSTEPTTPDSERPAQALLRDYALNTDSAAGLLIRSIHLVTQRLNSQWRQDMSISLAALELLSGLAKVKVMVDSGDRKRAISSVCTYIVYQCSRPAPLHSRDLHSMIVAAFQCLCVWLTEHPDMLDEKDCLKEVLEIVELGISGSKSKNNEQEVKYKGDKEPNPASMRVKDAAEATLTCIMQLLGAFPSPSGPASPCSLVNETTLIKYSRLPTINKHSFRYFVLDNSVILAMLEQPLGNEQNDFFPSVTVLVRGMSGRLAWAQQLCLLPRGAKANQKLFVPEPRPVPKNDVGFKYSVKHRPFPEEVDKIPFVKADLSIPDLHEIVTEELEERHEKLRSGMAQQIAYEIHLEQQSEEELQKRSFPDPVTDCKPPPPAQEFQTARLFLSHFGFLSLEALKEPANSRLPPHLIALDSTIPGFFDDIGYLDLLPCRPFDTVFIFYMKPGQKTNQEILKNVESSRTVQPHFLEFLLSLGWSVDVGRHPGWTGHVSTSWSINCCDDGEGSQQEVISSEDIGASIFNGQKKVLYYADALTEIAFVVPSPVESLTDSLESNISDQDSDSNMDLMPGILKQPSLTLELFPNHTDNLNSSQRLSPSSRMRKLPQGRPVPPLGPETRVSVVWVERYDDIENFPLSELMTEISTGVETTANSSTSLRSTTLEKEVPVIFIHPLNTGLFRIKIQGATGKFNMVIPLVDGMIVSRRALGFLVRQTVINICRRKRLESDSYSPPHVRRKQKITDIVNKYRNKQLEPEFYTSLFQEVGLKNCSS
Test: IP/MS, LZTR1 wild type-FLAG, U87
In short: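 Extracted peptides in 3% acetonitrile/0.1% formic acid ran on a 50 cm C18 column into an Orbitrap Fusion, with MaxQuant identification and spectral counting.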

B1: LZTR1-FLAG (other, human, UniProt Q8N653 1-840, looked up)
chain: MAGPGSTGGQIGAAALAGGARSKVAPSVDFDHSCSDSVEYLTLNFGPFETVHRWRRLPPCDEFVGARRSKHTVVAYKDAIYVFGGDNGKTMLNDLLRFDVKDCSWCRAFTTGTPPAPRYHHSAVVYGSSMFVFGGYTGDIYSNSNLKNKNDLFEYKFATGQWTEWKIEGRLPVARSAHGATVYSDKLWIFAGYDGNARLNDMWTIGLQDRELTCWEEVAQSGEIPPSCCNFPVAVCRDKMFVFSGQSGAKITNNLFQFEFKDKTWTRIPTEHLLRGSPPPPQRRYGHTMVAFDRHLYVFGGAADNTLPNELHCYDVDFQTWEVVQPSSDSEVGGAEVPERACASEEVPTLTYEERVGFKKSRDVFGLDFGTTSAKQPTQPASELPSGRLFHAAAVISDAMYIFGGTVDNNIRSGEMYRFQFSCYPKCTLHEDYGRLWESRQFCDVEFVLGEKEECVQGHVAIVTARSRWLRRKITQARERLAQKLEQEAAPVPREAPGVAAGGARPPLLHVAIREAEARPFEVLMQFLYTDKIKYPRKGHVEDVLLIMDVYKLALSFQLCRLEQLCRQYIEASVDLQNVLVVCESAARLQLSQLKEHCLNFVVKESHFNQVIMMKEFERLSSPLIVEIVRRKQQPPPRTPLDQPVDIGTSLIQDMKAYLEGAGAEFCDITLLLDGHPRPAHKAILAARSSYFEAMFRSFMPEDGQVNISIGEMVPSRQAFESMLRYIYYGEVNMPPEDSLYLFAAPYYYGFYNNRLQAYCKQNLEMNVTVQNVLQILEAADKTQALDMKRHCLHIIVHQFTKVSKLPTLRSLSQQLLLDIIDSLASHISDKQCAELGADI
notes: Expressed in HEK 293T, HeLa or U87 cells; used as cell lysate; also called LZTR1 wild type-FLAG; LZTR1 WT; not shown: FLAG tag at the C-terminus
binding result: binds
